± gives the standard deviation of the averaged measurements.
B1: library; a variant is named by its letters at N, in order (parent)
chain: GCUGUCACCGAGAAACUGUGAAGUAUAUCUUAAACCUGGGCACUUAAAAGAUAUAUGGAGUUAGUAGUGCAACCUGCUCGGUCUGAUGAGUCCNNNNNNGGACGAAACAGC

Legend:
cyclic di-GMP [1] = variants of: B1; assay: FACS-Seq fitted mean relative fluorescence mCherry/BFP without ligand (log10 relative fluorescence); HEK293T; ligand: cyclic di-GMP (c-di-GMP-II aptamer); higher = higher reporter protein expression; details: ligand present: no
In short: (§1)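 Fluorescence is reported as a normalized fitted mean of sorted-bin read counts. Lentivirally transduced HEK293T libraries (mCherry ribozyme-switch reporter, EF1α-BFP marker) were enriched, treated with or without ligand for 48 h, and sorted into 6 mCherry/BFP bins for MiSeq sequencing of PCR-amplified genomic DNA. The normal fit was on log10(mCherry/BFP), scaled to five spiked-in control ribozymes.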

cyclic di-GMP [2] = variants of: B1; assay: normalized RNA/DNA level without ligand (relative to sTRSVctl = 100) (log10 (% of sTRSVctl)); HEK293T; ligand: cyclic di-GMP (c-di-GMP-II aptamer); higher = less ribozyme self-cleavage, higher mRNA level; details: reporter: mCherry (pCS4076), ligand present: no
In short: (§2)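 Only sequences with at least 100 DNA reads were analyzed, from HEK293T cells transfected with 4 µg per 6-well well of ribozyme switch library plasmids 72 h before RNA extraction with EDTA. Any ligand was added 1 h before transfection. RNA level was defined as RNA over DNA reads, normalized to a spiked-in non-cleaving sequence or to the top sequences, then scaled and log-transformed. The top set was 25 sequences, and the scaling was ×100 followed by log10.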

cyclic di-GMP [3] = variants of: B1; assay: FACS-Seq fitted mean relative fluorescence mCherry/BFP with ligand (log10 relative fluorescence); HEK293T; ligand: cyclic di-GMP (c-di-GMP-II aptamer); ligand concentration (+) FACS-Seq: 1 mM; higher = higher reporter protein expression; details: ligand present: yes
In short: as §1

cyclic di-GMP [4] = variants of: B1; assay: normalized RNA/DNA level with ligand (relative to sTRSVctl = 100) (log10 (% of sTRSVctl)); HEK293T; ligand: cyclic di-GMP (c-di-GMP-II aptamer); ligand concentration (+) RNA-Seq: 1 mM; higher = less ribozyme self-cleavage, higher mRNA level; details: reporter: mCherry (pCS4076), ligand present: yes
In short: as §2

Variant	FACS-Seq fitted mean (log10) (cyclic di-GMP [1])	normalized RNA/DNA level without ligand (log10) (cyclic di-GMP [2])	FACS-Seq fitted mean (log10) (cyclic di-GMP [3])	normalized RNA/DNA level with ligand (log10) (cyclic di-GMP [4])
CGUUCC	-0.821 ± 0.086	1.735 ± 0.0027	-0.407 ± 0.1	1.87 ± 0.13
CGUUCA	-0.111 ± 0.098	1.39 ± 0.12	0.115 ± 0.005	1.59 ± 0.12
CGUUCU	-0.248 ± 0.08	1.51 ± 0.084	0.0758 ± 0.01	1.68 ± 0.068
AUAUCC	-0.758 ± 0.046	1.73 ± 0.048	-0.565 ± 0.012	1.9 ± 0.11
AGUAAA	-0.319 ± 0.071	1.41 ± 0.038	0.121 ± 0.012	1.62 ± 0.1
AGUAAU	0.353 ± 0.055	1.7 ± 0.006	0.4462 ± 0.0042	1.83 ± 0.097
AGUAAC	-0.0857 ± 0.11	1.595 ± 0.012	0.271 ± 0.023	1.79 ± 0.076
AGUAAG	-0.172 ± 0.14	1.53 ± 0.11	0.221 ± 0.032	1.7 ± 0.062
AGUUUA	-0.489 ± 0.04	1.53 ± 0.068	-0.25 ± 0.013	1.72 ± 0.12
CUAUCU	-0.234 ± 0.066	1.62 ± 0.021	-0.142 ± 0.059	1.76 ± 0.11
CUAUCC	-0.679 ± 0.11	1.77 ± 0.028	-0.371 ± 0.13	1.88 ± 0.13
AUCGGA	-0.605 ± 0.038	1.53 ± 0.043	-0.31 ± 0.055	1.7 ± 0.086
CGUGCA	-0.119 ± 0.16	1.68 ± 0.078	0.0822 ± 0.039	1.79 ± 0.1
CGUGCG	-0.833 ± 0.015	1.8 ± 0.02	-0.561 ± 0.012	1.83 ± 0.11
CUCCUA	-0.0767 ± 0.066	1.44 ± 0.12	0.0398 ± 0.14	1.68 ± 0.14
CUCGCU	-0.0213 ± 0.09	1.8 ± 0.047	0.226 ± 0.12	1.9 ± 0.079
CUCAGA	-0.23 ± 0.18	1.64 ± 0.041	0.0277 ± 0.043	1.78 ± 0.064
UGUGGG	-0.327 ± 0.023	1.74 ± 0.03	-0.0766 ± 0.022	1.86 ± 0.12
AUCCUG	-0.263 ± 0.061	1.67 ± 0.017	-0.151 ± 0.016	1.78 ± 0.13
GUACAA	-0.163 ± 0.036	1.5 ± 0.065	0.191 ± 0.07	1.68 ± 0.061
GUCACU	-0.159 ± 0.13	1.708 ± 0.0022	0.131 ± 0.035	1.85 ± 0.08
GUCACG	-0.35 ± 0.017	1.64 ± 0.028	-0.131 ± 0.21	1.84 ± 0.085
GUAGGA	-0.422 ± 0.02	1.43 ± 0.081	-0.137 ± 0.14	1.64 ± 0.11
UUCAAU	-0.187 ± 0.012	1.71 ± 0.03	0.267 ± 0.037	1.82 ± 0.14

Variant	FACS-Seq fitted mean (log10) (cyclic di-GMP [1])	normalized RNA/DNA level without ligand (log10) (cyclic di-GMP [2])	FACS-Seq fitted mean (log10) (cyclic di-GMP [3])	normalized RNA/DNA level with ligand (log10) (cyclic di-GMP [4])
UUCAAC	-0.163 ± 0.071	1.695 ± 0.004	0.153 ± 0.024	1.82 ± 0.12
UGUUGA	-0.163 ± 0.015	1.6 ± 0.041	-0.0478 ± 0.051	1.78 ± 0.12
AGUGCA	-0.382 ± 0.034	1.61 ± 0.046	-0.043 ± 0.018	1.79 ± 0.096
AGUGCC	0.324 ± 0.079	1.82 ± 0.11	0.275 ± 0.078	1.92 ± 0.15
AGUUAG	-0.315 ± 0.053	1.54 ± 0.059	-0.0278 ± 0.059	1.75 ± 0.11
CGUGAC	-0.217 ± 0.012	1.58 ± 0.081	0.0888 ± 0.11	1.74 ± 0.092
CGUGAA	-0.546 ± 0.02	1.24 ± 0.057	-0.396 ± 0.0075	1.35 ± 0.099
CGUGAU	-0.47 ± 0.026	1.45 ± 0.057	-0.173 ± 0.018	1.69 ± 0.07
GUCAAA	-0.258 ± 0.074	1.56 ± 0.036	0.0433 ± 0.047	1.73 ± 0.095
GUCAAU	-0.201 ± 0.12	1.63 ± 0.034	0.152 ± 0.028	1.78 ± 0.087
CUACAA	-0.602 ± 0.069	1.48 ± 0.11	-0.356 ± 0.025	1.68 ± 0.067
CUACAC	-0.167 ± 0.016	1.699 ± 0.0052	0.0624 ± 0.12	1.83 ± 0.11
GUCCUG	-0.102 ± 0.019	1.68 ± 0.022	0.19 ± 0.09	1.83 ± 0.14
GUAGCA	0.112 ± 0.04	1.83 ± 0.043	0.201 ± 0.053	1.87 ± 0.13
UUACCC	-0.256 ± 0.059	1.798 ± 0.0066	0.0203 ± 0.12	1.88 ± 0.11
UUACCA	-0.0643 ± 0.075	1.75 ± 0.055	0.275 ± 0.047	1.84 ± 0.1
GUAUUG	-0.534 ± 0.043	1.53 ± 0.044	-0.274 ± 0.037	1.71 ± 0.078
GUAUUU	-0.574 ± 0.0067	1.686 ± 0.0056	-0.186 ± 0.035	1.82 ± 0.085
UGUACU	-0.0524 ± 0.051	1.76 ± 0.05	0.296 ± 0.04	1.87 ± 0.094
UGUACC	0.263 ± 0.21	1.79 ± 0.068	0.4414 ± 0.00076	1.9 ± 0.13
GUCGCG	-0.376 ± 0.016	1.76 ± 0.018	-0.0454 ± 0.13	1.82 ± 0.071
GUCGCU	-0.798 ± 0.048	1.683 ± 0.0047	-0.654 ± 0.068	1.87 ± 0.065
GUAAAU	-0.979 ± 0.044	1.6 ± 0.051	-0.774 ± 0.011	1.76 ± 0.084
GUAAAA	-0.251 ± 0.15	1.57 ± 0.024	0.00851 ± 0.01	1.73 ± 0.094

Variant	FACS-Seq fitted mean (log10) (cyclic di-GMP [1])	normalized RNA/DNA level without ligand (log10) (cyclic di-GMP [2])	FACS-Seq fitted mean (log10) (cyclic di-GMP [3])	normalized RNA/DNA level with ligand (log10) (cyclic di-GMP [4])
GUAAAG	-0.104 ± 0.13	1.55 ± 0.078	0.22888 ± 7.2e-05	1.74 ± 0.065
GUAGUA	-0.69 ± 0.1	1.663 ± 0.0053	-0.47 ± 0.075	1.74 ± 0.099
GUAUCA	-0.201 ± 0.17	1.62 ± 0.02	0.0998 ± 0.097	1.78 ± 0.094
AGUGAC	-0.339 ± 0.017	1.63 ± 0.038	-0.00165 ± 0.05	1.77 ± 0.13
AGUGAA	-0.389 ± 0.095	1.36 ± 0.097	0.0166 ± 0.093	1.54 ± 0.096
CUCCGU	0.15 ± 0.23	1.8 ± 0.02	0.423 ± 0.0021	1.88 ± 0.093
UUCGUG	-0.959 ± 0.031	1.71 ± 0.022	-0.86 ± 0.094	1.86 ± 0.1
CUAUAA	-0.473 ± 0.065	1.41 ± 0.079	-0.255 ± 0.021	1.6 ± 0.11
CGUACU	-0.584 ± 0.039	1.43 ± 0.087	-0.327 ± 0.022	1.66 ± 0.12
CGUACA	-0.654 ± 0.072	1.32 ± 0.032	-0.354 ± 0.046	1.53 ± 0.12
AUAUAG	-0.0556 ± 0.15	1.61 ± 0.046	0.255 ± 0.02	1.74 ± 0.074
UUAAAU	-0.418 ± 0.091	1.711 ± 0.0058	-0.275 ± 0.024	1.86 ± 0.11
AUAGGU	-0.384 ± 0.071	1.51 ± 0.061	-0.171 ± 0.092	1.69 ± 0.14
AUAGGG	-0.534 ± 0.02	1.41 ± 0.12	-0.187 ± 0.073	1.59 ± 0.15
GGUAUC	-0.466 ± 0.023	1.63 ± 0.018	-0.193 ± 0.022	1.79 ± 0.12
CUAGAC	-0.239 ± 0.047	1.67 ± 0.053	-0.0103 ± 0.011	1.81 ± 0.093
CUAGAA	-0.5 ± 0.054	1.38 ± 0.091	-0.134 ± 0.032	1.6 ± 0.1
CGUUUU	-0.597 ± 0.085	1.46 ± 0.052	-0.329 ± 0.11	1.61 ± 0.098
CGUUUA	-0.544 ± 0.037	1.32 ± 0.077	-0.288 ± 0.098	1.46 ± 0.064
AUAAUU	-0.558 ± 0.032	1.55 ± 0.027	-0.213 ± 0.038	1.72 ± 0.087
AUAAUA	-0.503 ± 0.0074	1.58 ± 0.0077	-0.158 ± 0.15	1.75 ± 0.092
UUCGGC	-0.553 ± 0.015	1.81 ± 0.029	-0.447 ± 0.062	1.9 ± 0.086
UUCGGA	-0.328 ± 0.044	1.58 ± 0.093	0.0771 ± 0.088	1.8 ± 0.081

Reference: the supplement of paper PMC6757056
